Results: the supplement of paper PMC10567573

B1: HESX1 (parent)
chain: HVPNPPSGISFPSVVDHPMPEERA

Variants of: B1
Test: protein stability index of a GFP-peptide fusion (GPS, HEK-293T) (PSI 1-6); higher = more stable
Settings: c terminus: a fixed tail appended
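Also: lentivirally expressed fusions sorted by FACS into six bins by GFP to DsRed ratio, PSI derived from sequencing read proportions per bin multiplied by bin number.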

Variant	protein stability index
HVPNPPSGISFPSVVDIPMPEERA [H17I]	2.66
HVPNPPSGISFPSVVDFPMPEERA [H17F]	2.15
HVPNPPSGISFPSVVDVPMPEERA [H17V]	2.57
HVPNPPSGISFPSVVDQPMPEERA [H17Q]	2.68
HVPNPPSGISFPSVVDDPMPEERA [H17D]	3.28
HVPNPPSGISFPSVVDYPMPEERA [H17Y]	2.52
HVPNPPSGISFPSVVDEPMPEERA [H17E]	3.29
HVPNPPSGISFPSVVDRPMPEERA [H17R]	2.77
HVPNPPSGISFPSVVDNPMPEERA [H17N]	2.8
HVPNPPSGISFPSVVDMPMPEERA [H17M]	2.52
HVPNPPSGISFPSVVDLPMPEERA [H17L]	2.39
HVPNPPSGISFPSVVDCPMPEERA [H17C]	2.39
HVPNPPSGISFPSVVDWPMPEERA [H17W]	2.19
HVPNPPSGISFPSVLDHPMPEERA [V15L]	3.61
HVPNPPSGISFPSVDDHPMPEERA [V15D]	4.55
HVPNPPSGISFPSVTDHPMPEERA [V15T]	3.13
HVPNPPSGISFPSVSDHPMPEERA [V15S]	2.99
HVPNPPSGISFPSVHDHPMPEERA [V15H]	3.23
HVPNPPSGISFPSVCDHPMPEERA [V15C]	2.04
HVPNPPSGISFPSVMDHPMPEERA [V15M]	3.49
HVPNPPSGISFPSVEDHPMPEERA [V15E]	3.93
HVPNPPSGISFPSVADHPMPEERA [V15A]	2.65
HVPNPPSGISFPSVPDHPMPEERA [V15P]	3.06
HVPNPPSGISFPSVGDHPMPEERA [V15G]	3.85

Variant	protein stability index
HVPNPPSGISFPSVWDHPMPEERA [V15W]	2.17
HVPNPPSGISFPSVNDHPMPEERA [V15N]	3.22
HVPNPPSGISFPSVRDHPMPEERA [V15R]	3.11
HVPNPPSGISFPSVFDHPMPEERA [V15F]	3.28
HVPNPPSGISFPSVIDHPMPEERA [V15I]	3.16
HVPNPPSGISFPSVKDHPMPEERA [V15K]	3.2
HVPNPPSGISFPSVYDHPMPEERA [V15Y]	3.03
HVPNPPSGISFPSVQDHPMPEERA [V15Q]	3.63
HVPNPPSGISFPSLVDHPMPEERA [V14L]	3.9
HVPNPPSGISFPSNVDHPMPEERA [V14N]	4.43
HVPNPPSGISFPSMVDHPMPEERA [V14M]	3.1
HVPNPPSGISFPSQVDHPMPEERA [V14Q]	4.01
HVPNPPSGISFPSFVDHPMPEERA [V14F]	3.57
HVPNPPSGISFPSDVDHPMPEERA [V14D]	4.63
HVPNPPSGISFPSKVDHPMPEERA [V14K]	3.45
HVPNPPSGISFPSSVDHPMPEERA [V14S]	3.52
HVPNPPSGISFPSPVDHPMPEERA [V14P]	3.83
HVPNPPSGISFPSTVDHPMPEERA [V14T]	3.49
HVPNPPSGISFPSWVDHPMPEERA [V14W]	3.59
HVPNPPSGISFPSAVDHPMPEERA [V14A]	3.13
HVPNPPSGISFPSCVDHPMPEERA [V14C]	2.25
HVPNPPSGISFPSYVDHPMPEERA [V14Y]	3.21
HVPNPPSGISFPSGVDHPMPEERA [V14G]	4.21
HVPNPPSGISFPSIVDHPMPEERA [V14I]	3.11

Variant	protein stability index
HVPNPPSGISFPSEVDHPMPEERA [V14E]	4.36
HVPNPPSGISFPSHVDHPMPEERA [V14H]	3.86
HVPNPPSGISFPSRVDHPMPEERA [V14R]	3.75
HVPNPPSGINFPSVVDHPMPEERA [S10N]	3.5
HVPNPPSGIGFPSVVDHPMPEERA [S10G]	2.25
HVPNPPSGIIFPSVVDHPMPEERA [S10I]	2.59
HVPNPPSGIVFPSVVDHPMPEERA [S10V]	2.58
HVPNPPSGIQFPSVVDHPMPEERA [S10Q]	2.42
HVPNPPSGIFFPSVVDHPMPEERA [S10F]	2.61
HVPNPPSGITFPSVVDHPMPEERA [S10T]	2.97
HVPNPPSGIYFPSVVDHPMPEERA [S10Y]	2.18
HVPNPPSGIAFPSVVDHPMPEERA [S10A]	2.79
HVPNPPSGILFPSVVDHPMPEERA [S10L]	2.38
HVPNPPSGICFPSVVDHPMPEERA [S10C]	2.19
HVPNPPSGIKFPSVVDHPMPEERA [S10K]	2.38
HVPNPPSGIMFPSVVDHPMPEERA [S10M]	2.56
HVPNPPSGIPFPSVVDHPMPEERA [S10P]	2.29
HVPNPPSGIHFPSVVDHPMPEERA [S10H]	2.81
HVPNPPSGIWFPSVVDHPMPEERA [S10W]	1.97
HVPNPPSGIRFPSVVDHPMPEERA [S10R]	2.03
HVPNPPSGIDFPSVVDHPMPEERA [S10D]	3.77
HVPNPPSGIEFPSVVDHPMPEERA [S10E]	3.39
HVPNPPSGISFHSVVDHPMPEERA [P12H]	3.38
HVPNPPSGISFDSVVDHPMPEERA [P12D]	4.85

Variant	protein stability index
HVPNPPSGISFCSVVDHPMPEERA [P12C]	2.72
HVPNPPSGISFESVVDHPMPEERA [P12E]	4.57
HVPNPPSGISFVSVVDHPMPEERA [P12V]	2.99
HVPNPPSGISFNSVVDHPMPEERA [P12N]	3.98
HVPNPPSGISFTSVVDHPMPEERA [P12T]	3.78
HVPNPPSGISFLSVVDHPMPEERA [P12L]	2.79
HVPNPPSGISFGSVVDHPMPEERA [P12G]	3.82
HVPNPPSGISFRSVVDHPMPEERA [P12R]	3.42
HVPNPPSGISFISVVDHPMPEERA [P12I]	2.43
HVPNPPSGISFSSVVDHPMPEERA [P12S]	4.01
HVPNPPSGISFQSVVDHPMPEERA [P12Q]	3.92
HVPNPPSGISFFSVVDHPMPEERA [P12F]	1.75
HVPNPPSGISFKSVVDHPMPEERA [P12K]	3.83
HVPNPPSGISFASVVDHPMPEERA [P12A]	3.44
HVPNPPSGISFWSVVDHPMPEERA [P12W]	3.85
HVPNPPSGISFMSVVDHPMPEERA [P12M]	2.72
HVPNPPSGISFYSVVDHPMPEERA [P12Y]	2.56
HVPNPPSYISFPSVVDHPMPEERA [G8Y]	2.09
HVPNPPSSISFPSVVDHPMPEERA [G8S]	3.03
HVPNPPSWISFPSVVDHPMPEERA [G8W]	2.87
HVPNPPSVISFPSVVDHPMPEERA [G8V]	2.87
HVPNPPSTISFPSVVDHPMPEERA [G8T]	2.91
